Results on five molecules are retold here after article PMC12510028, “A biophysical and molecular characterization of the interaction between the Alzheimer risk factor BIN1 and the neuronal scaffold protein p140Cap” (The Journal of Biological Chemistry, 2025).

One experiment has as its target nsP3 (Chikungunya virus) (UniProt Q8JUX6). The settings on record: cited from earlier work.
Experiment [1] has as its target GST-tagged BIN1-SH3 domain MutK (K30R, rs138047593) (human). Nature of the experiment: pull-down; 25 μg GST or GST-BSH3 (WT or mutant) on glutathione-Sepharose with 0.5 mg of 1% Triton X-100 soluble mouse brain homogenate, 2 h at room temperature; washes with 50 mM KCl, 150 mM NaCl, 1.5% IGEPAL; immunoblot for p140Cap and total tau.
Another experiment relates to p140Cap. Nature of the experiment: GST pull-down from mouse brain homogenate, p140Cap captured. The settings on record: percent pulldown relative to input, two independent experiments, unpaired t test p = 0.0035. The experiment is classed as binding. As to the method:
For these experiments, we prepared glutathione S-transferase (GST) control and GST-tagged BIN1-SH3 domain fusion proteins coupled to glutathione-Sepharose and incubated them with mouse brain homogenates to capture bound proteins. Western blot analysis confirmed that p140Cap from the brain extract bound specifically to the BIN1-SH3 fusion protein, but not to the GST control (Fig. 7A).
To further investigate the contributions of electrostatic interactions in BIN1 SH3 domain–mediated protein binding, we conducted GST pull-down assays with mutant BIN1 SH3 domain constructs that lacked charged residues. […]
We used a previously published method with some modifications ([22]). […] The samples were analyzed by immunoblotting with antibodies against total tau (Dako #A0024; 1:1000) and p140Cap (Defilippi’s lab mAb; 1:2000) ([44]). After incubation with infrared dye–conjugated secondary antibodies, signals were recorded using the Odyssey infrared imaging system (LI-COR Biosciences) and quantified with ImageStudio6.0. The % GST pulldown was calculated by comparing signal intensities of p140Cap or tau in the input (10 μg) with the corresponding pull-down signal intensity from 0.5 mg protein and then multiplying by 100.

Experiment [2] concerns the target T1, Avi-tagged BIN1 SH3 domain (human, UniProt O00499 520-593, biotin within the 15 amino acid AviTag peptide (enzymatic, in E. coli)).
T1 chain: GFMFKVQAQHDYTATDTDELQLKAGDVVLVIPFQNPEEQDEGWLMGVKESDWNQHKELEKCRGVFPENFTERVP
Nature of the experiment: SPR. A general note: Surface plasmon resonance follows binding to a sensor surface in real time, without labels.

A word on the Kd: it is the free concentration of one partner at which half of the binding sites on the other are occupied at equilibrium, for simple one-to-one binding.

Take BIN1 SH3 (from UniProt O00499): in the experiment with nsP3 (Chikungunya virus), the equilibrium dissociation constant (Kd) is 0.024 µM.

B1: p140Cap from mouse brain (natural protein)
chain: MQPWQCLRRFALAWWERTAEGRARSPREEVGPRDPGGRGEPDPERSSPPMLSADDAEYPREYRTLGGGGGGGSGGRRFSNVGLVHTSERRHTVIAAQSLEALSGLQKADADRKRDAFMDHLKSKYPQHALALRGQQDRMREQVGGWTVDPVCLLSSLCSHLHGDSTPSGAGQPAQQPNYWSFKTRSSRHTQGAQPGLADQAAKLSYASAESLETMSEAELPLGFSRMNRFRQSLPLSRSASQTKLRSPGVLFLQFGEETRRVHITHEVSSLDTLHALIAHMFPQKLTMGMLKSPNTAILIKDEARNVFYELEDVRDIQDRSIIKIYRKEPLYAAFPGSHLTNGDLRREMVYASRESSPTRRLNNLSPASHLASSSPPPGLPSGLPSGLPSGSPSRSRLSYAGGRPPSYAGSPVHHAAERLGGAPTGQGVSPSPSAILERRDVKPDEDLAGKAGGMVLVKGEGLYADPYGLLHEGRLSLAAAAETHSHTRARAACTSGVPCALSAPTPLPRCSPTWRTRCTRRALAALYGDGYGFRLPPSSPQKLADVSAPSGGPPPPHSPYSGPPSRGSPVRQSFRKDSGSSSVFAESPGGKARSTGSASTAGAPPSELFPGPGERSLVGFGPPVPAKDTETRERMEAMEKQIASLTGLVQSALLRGSEPETPSEKVEGSNGAATPSAPVCGSGSKSSGATPVSGPPPPSASSTPAGQPTAVSRLQMQLHLRGLQNSASDLRGQLQQLRNVQLQNQESVRALLKPTEADVSMRVSEAARRQEDPLQRQRTLVEEERLRYLNDEELITQQLNDLEKSVEKIQRDVAHNHRLMPGPELEEKALVLKQLGETLTELKAHFPGLQSKMRVVLRVEVEAVKFLKEEPQRLDGLLKRCRGVTDTLAQIRRQVDEGMWPPPNNLLNQSPKKVAAETDFSKGLDFEIPPPSPPLNLHELSGPAEGTPLTPKSTNPTKCLDASSKRNTDKAVSVEAAERDWEEKRAALTQYSAKDINRLLEETQAELLKAIPDLDCASKTHPGPAPTPDHKPPKAPHGQKAAPRTEPSGRRGSDELTVPRYRTEKPSKSPPPPPPRRSFPSSHGLTTTRTGEVVVTSKKDSVFIKKAESEELEVQKPQVKLRRAVSEVVRPASTPPIMASAIKDEDDEERIIAELESGGSSVPPMKVVTPGASRLKAAQGPAGSPDKGKHGKQRTEYMRIQAQQQATKPSKEVSGPNETSSPGSEKPSGSRTSIPVLTSFGARNSSISF
Consider B1, for which the fold less bound than to WT BIN1-SH3 in experiment [1] turned out to be 2.6 fold.

B2: BIN1-SH3 fusion protein: GST-tagged WT human BIN1-SH3 domain fusion protein coupled to glutathione-Sepharose (protein)
chain: GFMFKVQAQHDYTATDTDELQLKAGDVVLVIPFQNPEEQDEGWLMGVKESDWNQHKELEKCRGVFPENFTERVP
modifications: left off: 6xHis, N-terminal, state not stated | GST, N-terminal, kept
notes: GST-tagged WT human BIN1-SH3 domain fusion protein coupled to glutathione-Sepharose
Take B2: in the experiment on p140Cap, the “fold more p140Cap captured than tau” value is on record as about 9.4 fold.

In turn, Ac-GYGFRLPPSSPQKL-NH2 [p140Cap 14-mer peptide 498-512] displayed a Kd in experiment [2] of over 75 µM.

Turning to Ac-ERSLVGFGPPVPAK-NH2 [p140Cap 14-mer peptide 583-596], in experiment [2], the Kd was over 75 µM.
